Source: patent publication US20250011391A1, “ULTRA LIGHT-SENSITIVE NEUROPSIN-BASED OPTOGENETIC TOOL FOR ACTIVATING G q-COUPLED SIGNALING AND/OR ACTIVATING CELLS” (GENANS BIOTECHNOLOGY CO., LTD, priority 2021, published 2025)

Tests used:
[1] = test system: GABA neurons in the zona incerta (ZI) of VGAT-Cre mice; assay: Food-foraging behavior task; assay type: in vivo, mouse; details: vs EGFP-expressing mice
Description: Finally, the utility of cOpn5-mediated optogenetics for modulating animal behavior is assessed. The lateral hypothalamus (LH) is a brain center with known functions in reward processing and feeding behaviors^54,55. cOpn5 is expressed in the LH GABAergic neurons of VGAT-Cre mice and implanted optical fibers to deliver light pulses into the LH of freely behaving mice (FIG. 8g). […] Electrophysiological recordings on LH and ZI cOpn5-expressing neurons are performed to characterize the response profiles. The injection sites and placement of optical fibers are confirmed by whole brain slices (FIG. 10a-c). […] Thus, cOpn5 is effective for rapidly, accurately, and reversibly modulating animal behavioral states.
i, Schematic diagram of the experimental setup for food foraging behavior. High-fat food pellets were used. cOpn5-EGFP was expressed in GABAergic neurons within the zonal incerta (ZI) of VGAT-Cre mice. EGFP was expressed as a control.
j, Summary of cOpn5-mediated food foraging behaviors. Foraging time percentage was calculated upon receiving light stimulation until the mouse found the hidden food. ****P<0.0001; n=6 mice; unpaired t test. Error bars indicate S.E.M.

mouse cortical neurons = assay: Ca2+ imaging (jRGECO1a) of cOpn5-expressing neurons in brain slice preparations; assay type: cell-based; details: 10 s; 100 μW/mm2; 473 nm
Source text: The application of cOpn5-mediated optogenetics in neurons is explored. Whether cOpn5 could mediate light-induced Ca^2+ signals is firstly examined. Using AAV and the pan-neuronal SYN promoter, cOpn5 and the genetically-encoded Ca^2+ sensor jRGECOla are expressed in mouse cortical neurons (FIG. 8a). […] Thus, cOpn5 also enables light-induced activation in neurons.
b, Pseudocolor images show Ca^2+ signals before and after light stimulation (10 s; 100 μW/mm2; 473 nm). Scale bar, 10 μm.

[2] = test system: astrocytes within the mouse S1 cortex; assay: In vivo two-photon imaging (920 nm) of ATP release (GRABATP sensor) following astrocyte activation
Description: The performance of cOpn5-mediated optogenetics in vivo is tested. Astrocytes represent an important population of non-excitable cells in the central nervous system, over which optogenetic tools have achieved only limited success to date^42. ATP is known as a messenger for inter-astrocyte communication; however, the real-time impacts of intracellular Ca^2+ on ATP release have not been visualized. Ultrasensitive GPCR Activation-Based ATP sensor GRABATP is used to monitor changes in extracellular ATP levels. Specifically, cOpn5 and the GRABATP sensor are expressed in the mouse S1 sensory cortex following the infusion of AAV vectors containing the GfaABC1D promoter (FIG. 6a), which is commonly used to drive gene expression in astrocytes.
Two-photon imaging of GRABATP signals from head-fixed awake, behaving mice is performed (FIG. 6a). It is initially expected that, in addition to the 920 nm light from pulsed laser for two-photon imaging, blue light pulses would be required to stimulate ATP signals. Strikingly, the 920 nm light itself, delivers for imaging, triggered massive ATP flashes in the cOpn5- and GRABATP-expressing mice, but not in mice that expressed the ATP sensor but lacked cOpn5 expression. Individual ATP flashes typically range in diameters of 20-100 μm and lasted for ˜1 min. The flash frequency gradually increases following ˜1 min of initial quiescence and peaked at the level of ˜50 flashes per min within the imaging area (640×640 μm^2) in ˜5 min (FIG. 6b, c and FIG. 7a). Moreover, high-frequency ATP flashes also occurs in the repeated trials (FIG. 7b).
a, Schematic diagram of the experimental setup for in vivo two-photon imaging (920 nm) of ATP release following cOpn5-mediated astrocyte activation. Images show the expression of cOpn5 (red) in astrocytes and the expression of a GRABATP sensor (green) in astrocytes within the mouse S1 cortex. Scale bar, 100 μm.

[3] = test system: Gq signaling in HEK 293T cells; assay: IP1 accumulation in Opn5-expressing HEK 293T cells; assay type: cell-based; details: continuous light 3 min; 100 μW/mm2; 470 nm
Description: (§1) Whether heterologous expression of the Opn5 orthologs from chicken, turtles, humans and mice (which share 80-90% protein sequence identity) have the capacity to mediate blue light-induced Gq signaling activation within HEK 293T cells is tested (FIG. 1a and table 7). Blue light for stimulation and the red intracellular calcium indicator Calbryte™ 630 AM dye are used to monitor the relative Ca^2+ response (FIG. 1b).
f, YM suppressed the IP1 accumulation evoked by continuous light stimulation (3 min; 100 μW/mm^2; 470 nm) in cOpn5-expressing HEK 293T cells (Left). ***P<0.0001, *P=0.0128; Tukey's multiple comparisons test.

[4] = test system: neurons in slice preparations of the motor cortex, hippocampus, and dorsal striatum; assay: Whole-cell patch-clamp recording of cOpn5-expressing neurons in slices; assay type: cell-based, mouse
Source text: The effect of light-induced cOpn5 activation on the electrophysiological properties of neurons in slice preparations of the motor cortex, hippocampus, and dorsal striatum is next investigated (FIG. 8d). Two types of activation patterns are observed. In a majority of recorded neurons, blue light pulses induce a small depolarizing current (˜20 pA) in the voltage-clamp mode, and induce delayed-yet-vigorous firing of action potentials in the current-clamp mode (FIG. 8e, left, n=12 neurons). […] In the other subset of neurons, brief light pulses rapidly evoked strong inward currents (100-1000 pA) and drove bursting firing of action potentials (FIG. 8e, right, n=6 neurons). […] Of note, unlike generated by ChR2 optogenetics^53, the action potential evoked by cOpn5 photostimulation is not time-locked to light pulses.
d, Schematic diagram depicts optogenetic stimulation and whole-cell patch-clamp recording of cOpn5-expressing neurons in the cortex, striatum and hippocampus.

[5] = test system: MARCKS protein, a well-established target of PKC; assay: Phosphorylation of MARCKS in cOpn5-expressing HEK 293T cells; assay type: cell-based; details: normalized to α-tubulin; PKC activity-dependent
Description: as §1
g, Phosphorylation of MARCKS in cOpn5-expressing HEK 293T cells in the control group (no light stimulation), the light stimulation group, and light+staurosporine (ST, PKC inhibitor) group. The amount of p-MARCKS in the same fraction was normalized to the amount of α-tubulin. **P=0.0096, ***P=0.0004; Tukey's multiple comparisons test.
e, One representative of phosphorylation of MARCKS in cOpn5-expressing HEK 293T cells in the control group (no light stimulation), the light stimulation group, and light+staurosporine group. The amount of p-MARCKS in the same fraction was normalized to the amount of α-tubulin.

[6] = cOpn5- and GRABATP-expressing mice, 920 nm light

B1: cOpn5: Chicken (Gallus gallus) Opn5 (neuropsin) ortholog, SEQ ID NO:1, GenBank NM_001130743.1 (protein, listed as Gallus lafayetii)
chain: MSGMASDCNSSSQEEYLPHYVQQEDPFASKLSREADIIAGFYLTVIGILSTLGNGYVIFMSSKRKKKLRPAEIMTVNLAVCDLGISVVGKPFSIISFFSHRWIFGWMGCRWYGWAGFFFGCGSLITMTAVSLDRYLKICHLAYGTWLKRHHAFICLALIWAYATFWATVPFAGVGSYAPEPFGTSCTLDWWLAQASVAGQAFVLSILFFCLLFPTAVIVFSYVKIILKVKSSTKEVAHYDTRIQNSHILEMKLTKVAMLICAGFLIAWIPYAVVSVWSAFGQPDSVPIQFSVVPTLLAKSAAMYNPIIYQVIDCKFACCRSGGPKTLQKKSSLKESRMYTLSSHRDSAALSGTQLEV
**Q.** What does the source list for B1?
**A.** time of foraging high fat food pellets on repeated light stimulation [1]: significantly increase in the time of foraging; Ca2+ transients in neurons on blue light pulses (mouse cortical neurons): reliably evokes Ca^2+ transients; initial quiescence before flash frequency increases ([2]; cOpn5- and GRABATP-expressing mice): ~1 min; diameter of individual ATP flashes [2, 6]: 20-100 μm; duration of individual ATP flashes [2, 6]: ~1 min; time to peak ATP flash frequency ([2]; cOpn5-expressing mice): ~5 min; ATP flash frequency versus proinflammatory (LPS) treatment of non-cOpn5-expressing mice ([2]; mouse, in vivo): ~25 times; two-photon activation wavelength ([2]; pulsed laser for two-photon imaging): ≥ 920 nm; peak ATP flash frequency ([2]; within the imaging area (640×640 μm2), cOpn5-expressing mice): ~50 flashes per min; light-induced increase in the level of inositol phosphate (IP1) [3]: light-induced increase; firing rate of neurons after pulsed 473 nm light stimulation ([4]; 1 Hz, 5 s, n=18): increased; firing rate across repetitive trials of light stimulation ([4]; 10 ms/pulse at 10 Hz): non-attenuated; spike latency after the initial light pulse, higher frequencies of light pulses ([4]; majority-type neurons): ~3 s; spike latency after the initial light pulse, lower frequency of light pulses ([4]; majority-type neurons): ~5 s; inward currents evoked by brief light pulses ([4]; other subset of neurons (n=6)): 100-1000 pA; depolarizing current induced by blue light pulses ([4]; voltage-clamp, majority of recorded neurons (n=12)): ~20 pA; blue light-triggered phosphorylation of MARCKS protein [5]: triggers the phosphorylation of MARCKS protein
